According to doi:10.1101/194993:
Residue numbers refer to the chain shown, from its start. Each block holds one binder with its values, some of them ahead of it.

Experiments:
[1] = biological target: native tubulin purified from porcine brain, polymerised to microtubules (MTs) (porcine); assay: co-sedimentation
[2] = biological target: native tubulin purified from porcine brain, polymerised to microtubules (MTs) (porcine); assay: co-sedimentation; remark: listed apart in the source
[3] = biological target: native tubulin purified from porcine brain, polymerised to microtubules (MTs) (porcine); assay: total internal reflection fluorescence microscopy
[4] = biological target: native tubulin purified from porcine brain, polymerised to microtubules (MTs) (porcine); assay: co-sedimentation; remark: listed apart in the source

B2: Cdt1^92-546 (human Cdt1 devoid of the N-terminal 92 aa, N-terminal GFP fusion) (domain or fragment)
chain: PSPGQKIKKSTPAAGQPPHLTSAQDQDTISELASCLQRARELGARVRALKASAQDAGESCTPEAEGRPEEPCGEKAPAYQRFHALAQPGLPGLVLPYKYQVLAEMFRSMDTIVGMLHNRSETPTFAKVQRGVQDMMRRRFEECNVGQIKTVYPASYRFRQERSVPTFKDGTRRSDYQLTIEPLLEQEADGAAPQLTASRLLQRRQIFSQKLVEHVKEHHKAFLASLSPAMVVPEDQLTRWHPRFNVDEVPDIEPAALPQPPATEKLTTAQEVLARARNLISPRMEKALSQLALRSAAPSSPGSPRPALPATPPATPPAASPSALKGVSQDLLERIRAKEAQKQLAQMTRCPEQEQRLQRLERLPELARVLRSVFVSERKPALSMEVACARMVGSCCTIMSPGEMEKHLLLLSELLPDWLSLHRIRTDTYVKLDKAADLAHITARLAHQTRAEEGL
Kd [2]: 1850 nM | Kd [3]: 460 nM | dwell time [3]: 2.37 s | kon [3]: 1070 M⁻¹ s⁻¹ | Kd [4]: 2030 nM | Kd [1]: 2200 nM | binding left in the presence of 250 mM NaCl [1]: 50%

B3: Cdt1^92-546 8D (Aurora B phosphomimetic mutant) (domain or fragment)
chain: B2 chain with S10D, T11D, S52D, S174D, T179D, T196D, T238D, T267D
Kd [4]: 5500 nM

Second part, the binder after the results:

Kd [1]: 2290 nM
B1: full-length (FL) Cdt1^1-546, untagged (natural protein)
chain: MEQRRVTDFFARRRPGPPRIAPPKLACRTPSPARPALRAPASATSGSRKRARPPAAPGRDQARPPARRRLRLSVDEVSSPSTPEAPDIPACPSPGQKIKKSTPAAGQPPHLTSAQDQDTISELASCLQRARELGARVRALKASAQDAGESCTPEAEGRPEEPCGEKAPAYQRFHALAQPGLPGLVLPYKYQVLAEMFRSMDTIVGMLHNRSETPTFAKVQRGVQDMMRRRFEECNVGQIKTVYPASYRFRQERSVPTFKDGTRRSDYQLTIEPLLEQEADGAAPQLTASRLLQRRQIFSQKLVEHVKEHHKAFLASLSPAMVVPEDQLTRWHPRFNVDEVPDIEPAALPQPPATEKLTTAQEVLARARNLISPRMEKALSQLALRSAAPSSPGSPRPALPATPPATPPAASPSALKGVSQDLLERIRAKEAQKQLAQMTRCPEQEQRLQRLERLPELARVLRSVFVSERKPALSMEVACARMVGSCCTIMSPGEMEKHLLLLSELLPDWLSLHRIRTDTYVKLDKAADLAHITARLAHQTRAEEGL

reduction of MT binding against Cdt1^92-546 [1]: 50%
B4: Cdt1^410-546 (N-terminal GFP fusion) (domain or fragment)
chain: ASPSALKGVSQDLLERIRAKEAQKQLAQMTRCPEQEQRLQRLERLPELARVLRSVFVSERKPALSMEVACARMVGSCCTIMSPGEMEKHLLLLSELLPDWLSLHRIRTDTYVKLDKAADLAHITARLAHQTRAEEGL
